The values below come from patent US20230212306A1 (Daiichi Sankyo, published 2023).

The target in assay [1] is T1, rat TLR7-Flag, expressed in HEK293 cells (rat, UniProt P58681 27-1050 (mouse entry)).
T1 construct: not shown: Flag tag
T1 chain: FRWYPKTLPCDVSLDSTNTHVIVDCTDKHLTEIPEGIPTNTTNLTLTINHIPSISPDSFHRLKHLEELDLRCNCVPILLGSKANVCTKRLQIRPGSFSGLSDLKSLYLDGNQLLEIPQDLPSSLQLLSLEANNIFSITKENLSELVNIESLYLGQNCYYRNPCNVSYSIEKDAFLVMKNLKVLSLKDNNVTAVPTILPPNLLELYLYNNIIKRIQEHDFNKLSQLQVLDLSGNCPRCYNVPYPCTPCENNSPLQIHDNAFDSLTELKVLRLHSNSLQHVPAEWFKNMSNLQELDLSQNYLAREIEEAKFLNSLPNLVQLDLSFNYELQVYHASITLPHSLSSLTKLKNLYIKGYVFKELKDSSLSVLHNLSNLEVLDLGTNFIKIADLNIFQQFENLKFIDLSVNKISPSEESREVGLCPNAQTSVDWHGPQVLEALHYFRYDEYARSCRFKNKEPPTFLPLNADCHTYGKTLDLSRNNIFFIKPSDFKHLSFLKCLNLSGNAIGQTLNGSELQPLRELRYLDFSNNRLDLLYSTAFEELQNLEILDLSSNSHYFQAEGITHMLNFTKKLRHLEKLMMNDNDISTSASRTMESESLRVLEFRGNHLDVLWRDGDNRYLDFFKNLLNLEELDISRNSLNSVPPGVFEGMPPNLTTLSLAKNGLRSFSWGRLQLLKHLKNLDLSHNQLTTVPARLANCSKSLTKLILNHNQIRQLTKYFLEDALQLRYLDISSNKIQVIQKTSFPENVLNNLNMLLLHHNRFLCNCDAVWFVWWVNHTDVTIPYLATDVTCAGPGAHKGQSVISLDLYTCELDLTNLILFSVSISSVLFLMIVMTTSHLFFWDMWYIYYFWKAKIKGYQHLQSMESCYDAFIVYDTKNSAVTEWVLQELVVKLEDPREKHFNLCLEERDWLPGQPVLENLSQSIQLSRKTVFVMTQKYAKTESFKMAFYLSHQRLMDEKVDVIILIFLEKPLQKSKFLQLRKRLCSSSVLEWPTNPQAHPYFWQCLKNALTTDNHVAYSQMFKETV
Briefly: flow cytometry on fixed and permeabilised HEK293 cells expressing rat TLR7-Flag. From the text: (§1) The HEK293 cells expressing human TLR7 (variant 1)-Flag prepared in 8)-1, the HEK293 cells expressing human TLR7 (variant 2)-Flag prepared in 8)-2, the HEK293 cells expressing monkey TLR7-Flag prepared in 8)-3, the HEK293 cells expressing mouse TLR7-Flag prepared in 8)-4, and the HEK293 cells expressing rat TLR7-Flag prepared in 8)-5 were immobilized/subjected to membrane permeation with a Fixation and Permeabilization Solution (Becton, Dickinson and Company) and thereafter stained using huAT01_H3L2_IgG1LALA, which is one of the humanized anti-human TLR7 antibodies, and ALEXA FLUOR® 647 AffiniPure Goat anti-human IgG+IgM (H+L) (Jackson ImmunoResearch Inc.), which is the secondary antibody.
(§2) The binding of the humanized anti-human TLR7 antibody to human TLR7 was detected based on flow cytometry (Miltenyi Biotec K.K.), and the data was analyzed using software (Flowjo) which analyzes the data of flow cytometry.

Assay [2] concerns the target T2, human TLR7 (variant 1)-Flag, expressed in HEK293 cells (human, UniProt Q9NYK1 27-1049).
T2 construct: Transient expression from pcDNA3.1 in Lenti-X HEK293T cells; cells fixed and permeabilised before staining; not shown: Flag tag
T2 sequence: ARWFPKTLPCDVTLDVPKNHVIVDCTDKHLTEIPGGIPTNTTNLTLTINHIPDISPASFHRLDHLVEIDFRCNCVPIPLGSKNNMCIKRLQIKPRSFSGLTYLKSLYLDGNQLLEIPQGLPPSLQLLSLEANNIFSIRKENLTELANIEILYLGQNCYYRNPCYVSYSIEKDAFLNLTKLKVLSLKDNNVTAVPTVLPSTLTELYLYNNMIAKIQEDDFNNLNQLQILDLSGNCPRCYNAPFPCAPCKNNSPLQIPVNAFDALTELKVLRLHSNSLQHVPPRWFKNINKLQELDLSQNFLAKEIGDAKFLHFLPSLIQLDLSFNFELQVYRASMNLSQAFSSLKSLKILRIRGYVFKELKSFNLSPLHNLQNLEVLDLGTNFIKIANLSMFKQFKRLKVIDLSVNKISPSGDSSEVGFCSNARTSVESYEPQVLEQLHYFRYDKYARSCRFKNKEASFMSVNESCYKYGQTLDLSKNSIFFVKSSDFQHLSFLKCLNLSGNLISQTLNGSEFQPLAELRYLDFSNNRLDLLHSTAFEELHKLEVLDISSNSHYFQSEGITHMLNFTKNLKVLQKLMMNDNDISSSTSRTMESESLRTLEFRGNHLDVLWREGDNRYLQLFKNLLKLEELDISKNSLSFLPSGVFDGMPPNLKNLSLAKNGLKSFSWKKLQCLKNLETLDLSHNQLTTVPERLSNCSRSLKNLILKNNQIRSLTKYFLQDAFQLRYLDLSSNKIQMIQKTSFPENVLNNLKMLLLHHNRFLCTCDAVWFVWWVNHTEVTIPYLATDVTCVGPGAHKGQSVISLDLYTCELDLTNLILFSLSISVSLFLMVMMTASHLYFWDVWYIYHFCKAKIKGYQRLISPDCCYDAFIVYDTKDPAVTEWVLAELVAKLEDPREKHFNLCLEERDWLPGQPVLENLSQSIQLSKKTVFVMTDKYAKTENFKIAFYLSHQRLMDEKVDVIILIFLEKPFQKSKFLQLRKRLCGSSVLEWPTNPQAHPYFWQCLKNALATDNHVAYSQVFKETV
Briefly: flow cytometry on fixed and permeabilised HEK293 cells expressing human TLR7 (variant 1)-Flag.
Text: as §1, §2

B1: huAT01_H3L2_IgG1LALA antibody (antibody, V domains shown)
VH: QVQLVQSGAEVKKPGASVKVSCKASGYTFTNNWLHWVRQAPGQGLEWMGDIYPSNGRTNYAQKFQGRVTLTVDKSTSTAYMELSSLRSEDTAVYFCARERGYFDYWGQGTLVTVSS
VL: DIQMTQSPSSLSASVGDRVTITCKASQDINKYIAWYQQKPGKAPKLLIHYTSTLQPGIPSRFSGSGSGRDYTLTISSLQPEDFATYYCLQYDYLLTFGQGTKVEIKR
notes: Humanized AT01; heavy huAT01_H3_IgG1LALA, light huAT01_L2
Take B1: the binding result is reported as “no binding” in assay [1] and “binds” in assay [2].
